Usually EC50 stands for the concentration giving half of the maximal effect.

The labels stand for the following.
B1: (Y-S1-X)p-Fab^2 with Y Gd/DOTA, S1 - (bond), X -Gly-Tyr-NH-(CH2)5-Z1(#S)- (Fab, V domains shown)
VH: EVQLVESGGGLVQPGGSLRLSCAASGFNIRDTYMHWVRQAPGKGLEWVARIDPANGNSRYVPKFQGRFTISADTSRNTAYLQMNSLRAEDTAVYYCAPFGYYVSDYAMAYWGQGTLVTVSS
VL: DIQLTQSPSSLSASVGDRVTITCRAGESVDIFGVGFLHWYQQKPGKAPKLLIYRASNLESGIPSRFSGSGSRTDFTLTISSLQPEDFATYYCQQTNEDPYTFGQGTKVEIKR
modifications: labeling may sit on this chain; sites not stated; labeling portion (MW 1045) on amino groups of the Fab, sites and chain not stated; 1-3 per Fab by MS
notes: also called Ex-No 37; conjugate 37
B2: [DFO-C(═O)-CH2O-(1,3-Ph)-C(═O)-Gly-Tyr*-CH2-C(═O)-NH-(CH2)2-Z1(#S)]p-Fab^2 (Fab, V domains shown)
VH: B1 VH
VL: B1 VL
modifications: labeling may sit on this chain; sites not stated; labeling portion (MW 1241) bound via 2-iminothiolane-treated amino groups of the Fab, sites and chain not stated; 1 per Fab by MS; free thiols capped with 2-iodoacetamide
notes: No metal; also called Ex-No 60; Conjugate No. 60
B3: (Y-S1-X)p-Fab^2 with Y Gd/4arm-DOTA, S1 -CH2-(1,4-Ph)-NH-C(═S)-, X -Gly-Tyr-Lys*-Z2(#N)- (Fab, V domains shown)
VH: B1 VH
VL: B1 VL
modifications: labeling may sit on this chain; sites not stated; labeling portion (MW 1153) on amino groups of the Fab, sites and chain not stated; 1-2 per Fab by MS
notes: also called Ex-No 56; conjugate 56
B4: (Y-S1-X)p-Fab^2 with Y Gd/DOTA, S1 -NH-(CH2CH2O)3-CH-C(═O)-NH-CH2-(1,3-Ph)-C(═O)-, X -Gly-Lys*-C(═S)-NH-(1,4-Ph)-NH-C(═S)- (Fab, V domains shown)
VH: B1 VH
VL: B1 VL
modifications: labeling may sit on this chain; sites not stated; labeling portion (MW 1259) on amino groups of the Fab, sites and chain not stated; 1-3 per Fab by MS
notes: also called Ex-No 44; conjugate 44
B5: (Y-S1-X)p-Fab^2 with Y Gd/DOT[A], S1 - (bond), X -Gly-Ile-NH-(CH2)2-Z1(#N)- (Fab, V domains shown)
VH: B1 VH
VL: B1 VL
modifications: labeling may sit on this chain; sites not stated; labeling portion (MW 852) on amino groups of the Fab, sites and chain not stated; 1-3 per Fab by MS
notes: also called Ex-No 3; conjugate 3
B6: (Y-S1-X)p-Fab^2 with Y Gd/4arm-DOTA, S1 spacer (n), X -Met-Gly-Lys*-Z2(#N)- (Fab, V domains shown)
VH: B1 VH
VL: B1 VL
modifications: labeling may sit on this chain; sites not stated; labeling portion (MW 1244) on amino groups of the Fab, sites and chain not stated; 1 per Fab by MS
notes: also called Ex-No 58; conjugate 58
B7: (Y-S1-X)p-Fab^2 with Y Gd/DOTA, S1 spacer (i), X -Met -Gly-Lys*-Z2(#N)- (Fab, V domains shown)
VH: B1 VH
VL: B1 VL
modifications: labeling may sit on this chain; sites not stated; labeling portion (MW 1296) on amino groups of the Fab, sites and chain not stated; 1-2 per Fab by MS
notes: also called Ex-No 45; conjugate 45
B8: (Y-S1-X)p-Fab^2 with Y Gd/DOTA, S1 -NH-(CH2CH2O)3-CH2-C(═O)-NH-CH2-(1,3-Ph)-C(═O)-, X -Gly-Tyr*-CH-C(═O)-NH-(CH2)2-Z1(#S) (Fab, V domains shown)
VH: B1 VH
VL: B1 VL
modifications: labeling may sit on this chain; sites not stated; labeling portion (MW 1384) on amino groups of the Fab, sites and chain not stated; 1-3 per Fab by MS
notes: also called Ex-No 39; conjugate 39
B9: [Gd/4arm-DOTA-CH2-(1,4-Ph)-NH-C(═S)-NH-CH2-(1,3-Ph)-C(═O)-Met-Gly-Lys*-Z2(#S)]p-Fab^2 (Fab, V domains shown)
VH: B1 VH
VL: B1 VL
modifications: labeling may sit on this chain; sites not stated; labeling portion (MW 1355) bound via 2-iminothiolane-treated amino groups of the Fab, sites and chain not stated; 1-2 per Fab by MS
notes: also called Ex-No 40; Conjugate No. 40
B10: (Y-S1-X)p-Fab^2 with Y Gd/4arm-DOTA, S1 -CH2-(1,4-Ph)-NH-C(═S)-, X -Met-Gly-Lys*-Z2(#N)- (Fab, V domains shown)
VH: B1 VH
VL: B1 VL
modifications: labeling may sit on this chain; sites not stated; labeling portion (MW 1121) on amino groups of the Fab, sites and chain not stated; 1 per Fab by MS
notes: also called Ex-No 54; conjugate 54
B11: (Y-S1-X)p-Fab^2 with Y Gd/DOTA, S1 -NH-(CH2CH2O)3-CH2-C(═O)-, X -Met-Gly-Lys*-Z2(#N)- (Fab, V domains shown)
VH: B1 VH
VL: B1 VL
modifications: labeling may sit on this chain; sites not stated; labeling portion (MW 1145) on amino groups of the Fab, sites and chain not stated; 1-4 per Fab by MS
notes: also called Ex-No 41; conjugate 41
B12: [Gd/DOTA]p-Fab^2 (Fab, V domains shown)
VH: B1 VH
VL: B1 VL
modifications: labeling may sit on this chain; sites not stated; [Gd/DOTA] (MW 542) on amino groups of the Fab, sites and chain not stated; 1-2 per Fab by MS
notes: also called Ex-No 47; conjugate 47
B13: (Y-S1-X)p-Fab^2 with Y Gd/DOTA, S1 spacer (p), X -Met-Gly-Lys*-Z2(#N)- (Fab, V domains shown)
VH: B1 VH
VL: B1 VL
modifications: labeling may sit on this chain; sites not stated; labeling portion (MW 1079) on amino groups of the Fab, sites and chain not stated; 1-3 per Fab by MS
notes: also called Ex-No 57; conjugate 57
B14: (Y-S1-X)p-Fab^2 with Y Gd/DOTA, S1 spacer (m), X -Met-Gly-Lys*-Z2(#N)- (Fab, V domains shown)
VH: B1 VH
VL: B1 VL
modifications: labeling may sit on this chain; sites not stated; labeling portion (MW 1107) on amino groups of the Fab, sites and chain not stated; 1 per Fab by MS
notes: also called Ex-No 42; conjugate 42

This test addresses T1, CEACAM5 (R&D Systems, 4128-CM-050) (human, UniProt P06731 35-685).
T1 construct: Immobilised on the ELISA plate; also called human CEACAM5
T1 sequence (looked up): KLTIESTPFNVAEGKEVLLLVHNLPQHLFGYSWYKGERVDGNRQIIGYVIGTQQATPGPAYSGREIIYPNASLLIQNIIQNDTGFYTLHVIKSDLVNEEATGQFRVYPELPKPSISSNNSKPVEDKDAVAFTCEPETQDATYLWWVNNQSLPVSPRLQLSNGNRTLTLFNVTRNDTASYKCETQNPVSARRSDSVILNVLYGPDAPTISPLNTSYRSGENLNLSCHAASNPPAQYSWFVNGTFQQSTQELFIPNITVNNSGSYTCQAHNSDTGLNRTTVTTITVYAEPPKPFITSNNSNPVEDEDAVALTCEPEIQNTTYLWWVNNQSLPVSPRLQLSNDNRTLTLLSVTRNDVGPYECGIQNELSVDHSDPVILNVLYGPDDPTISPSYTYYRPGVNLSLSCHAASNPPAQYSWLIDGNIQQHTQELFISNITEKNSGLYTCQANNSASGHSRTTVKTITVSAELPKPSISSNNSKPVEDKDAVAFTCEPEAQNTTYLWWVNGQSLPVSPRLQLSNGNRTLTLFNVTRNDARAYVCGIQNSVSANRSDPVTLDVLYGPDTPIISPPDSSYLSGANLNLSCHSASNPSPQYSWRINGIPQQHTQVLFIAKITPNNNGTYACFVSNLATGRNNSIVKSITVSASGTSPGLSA
The experiment in a line: ELISA on immobilised CEACAM5, 4-parameter fit, duplicate. How it is done: Each anti-human CEACAM5 antibody Fab fragment conjugate prepared in Example 2 was subjected to ELISA to evaluate the binding activity thereof to CEACAM5. In the present test, a phosphate buffer (Nacalai Tesque Inc., 0.1 mol/L-Phosphate Buffer Solution (pH 7.2)) prepared to 10 mM by diluting 10-fold with distilled water was used as a solvent for an antigen immobilization liquid, and 20×PBS/Tween 20 Buffer (Thermo Fisher Scientific Inc., 28352) diluted 20-fold with distilled water was used as a wash liquid. In addition, for bovine serum albumin (BSA) used in the present test, 30% Bovine Serum Albumin solution (Sigma-Aldrich, Inc., A9576-50ML) was added in an appropriate proportion for use. CEACAM5 (R&D Systems, 4128-CM-050) was diluted with a 10 mM phosphate buffer (pH 7.2) to 0.1 μg/mL, and added to a Nunc MaxiSorp White 384 plate (Nunc, 4603272) at 30 μL per well, and the plate was incubated overnight at 4° C. for immobilization. The CEACAM5 immobilization liquid was removed by reverse centrifugation, and then blocking was carried out by adding a PBS/Tween 20 buffer containing 5.0% BSA. Thereafter, the blocking solution was removed by reverse centrifugation, a solution of each CEACAM5 antibody Fab² fragment conjugate described above or a Fab² fragment having no labeling portion (PB009-01) as a control at about 10000 ng/mL was diluted in 14 steps by 3-fold dilution using a PBS/Tween 20 buffer containing 1.0% BSA, and 30 μL was added per well and incubated at room temperature for 60 minutes. The plate was washed 3 times with a PBS/Tween 20 buffer, and Horseradish Peroxidase (HRP)-labeled goat anti-human IgG (H+L chain) antibody (MBL Life Sciences, 206) diluted 1000-fold using a PBS/Tween 20 buffer containing 5.0% BSA was added at 30 μL per well and incubated at room temperature for 30 minutes. The plate was washed 3 times with a PBS/Tween 20 buffer, and ECL Prime Western Blotting DETECTION Reagent (GE Healthcare, RPN2232) as a substrate was added at 30 μL per well. The substrate was incubated at room temperature for 15 minutes, and then a signal value thereof was measured using an Envision counter (PerkinElmer, Inc.).
The test for each antibody was carried out in duplicate, and an EC₅₀ value was calculated using a 4-parameter logistic curve model.
Consider B1, for which the EC50 was 0.23 nM.

The molecule B2 had an EC50 of 0.18 nM.

Molecule B3 registered an EC50 of 0.26 nM.

For B4, the EC50 came to 0.29 nM.

With B5, the concentration for a half-maximal effect (EC50) came out at 0.13 nM.

With B6, a half-maximal response (EC50) required 0.28 nM.

In turn, B7 showed a half-maximal effective concentration (EC50) of 0.23 nM.

In turn, B8 registered an EC50 of 0.2 nM.

Regarding B9, the EC50 is 0.22 nM.

In the case of B10, the midpoint of the response, the EC50, lay at 0.23 nM.

B11: the response was half-maximal at 0.21 nM (EC50).

The molecule B12 displayed an EC50 of 0.25 nM.

Take B13: the response was half-maximal at 0.29 nM (EC50).

Molecule B14 came in with an EC50 of 0.21 nM.

The record behind these values is patent publication US20220096653A1, “CONJUGATE COMPRISING LIGAND AND CEACAM5 ANTIBODY FAB FRAGMENT” (ASTELLAS PHARMA INC., priority 2019, published 2022).
